This series is described as follows: yeast display, Sf9 membrane polyspecificity reagent, FACS + sequencing; frameworks hold sequencing errors. In short, it runs like this: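 Galactose-induced (36–48 hours) yeast carrying a synthetic nanobody display library were exposed to 10% biotinylated, detergent-solubilized Sf9 membrane reagent at 4 °C for 1 hour. FACS followed streptavidin microbead enrichment, using low and high (top ~1%) gates for expression (anti-HA) and reagent binding (streptavidin). Colony PCR, MiSeq 2 × 250 sequencing and CDR-length filtering followed. Labels for polyreactivity reflect the gate of origin.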
For “QVQLVESGGGLVQAGGSLRLSCAASGRIYTMGWYRQAPGKERELVAAISKSGGSTSYADSVKGRFTISRDNAKNTVYLQMNSLKPEDTAVYYCAALHYGRYRMDYWGQGTQVTVSS”, the “polyreactivity (PSR sort gate)” value is “high polyreactivity”.

Consider “QVQLVESGGGLVQAGGSLRLSCAASGRTFSGYAMGWYRQAPGKERELVAAIRGGSTNYADSVKGRFTISRDNAKNTVYLQMNSLKPEDTAVYYCNAKRSWVWAGYDYWGQGTQVTVSS”, for which the “polyreactivity (PSR sort gate)” value is recorded as “high polyreactivity”.

For the sequence “QVQLVESGGGLVQAGGSLRLSCAASGSTFAYYTMGWYRQAPGKERELVAAITWSGGRTFYADSVKGRFTISRDNAKNTVYLQMNSLKPEDTAVYYCNTDDSHRPPRTPDDYNYWGQGTQVTVSS”, the “polyreactivity (PSR sort gate)” value was “high polyreactivity”.

As to “QVQLVESGGALVQAGGSLRLSCAASGRIFGVNTMGWYRQAPGKERELVDAISAGGGSTYYADSVKGRFTISRDLAKNTVYLQMNSLKPEDTAVYYCNVLTLNYRSTSRRKEYDYWGQGTQVTVSS”, the “polyreactivity (PSR sort gate)” value was “high polyreactivity”.

For the sequence “QVQLVESGGGLVQAGGSLRLSCAASGRTIRAYTMGWYRQAPGNERELVAAISTPGGSTYYADSVKGRFTISRDNAKNTVYLQLNSLKPEDTAVYYCAADYGGPITGYEYWGQGTQVTVSS”, the “polyreactivity (PSR sort gate)” value is on record as “low polyreactivity”.

In the case of “QVQLVESGGGLVQAGGSLRLSCAASGIIFFKNAMGWYRQAPGKERELVAAISSTDTRTYYADSVKGRFTISRDNAKNTVYLQMNSLKPEDTAVYYCAASRRGGGLDYWGQGTQVTVSS”, the “polyreactivity (PSR sort gate)” value is reported as “high polyreactivity”.

Turning to “QVQLVESGGGLVQAGGSLRLSCAASGRTFVLYAMGWYRQAPGKERELVASITSGGSTNYADSVKGRFTISRDNAKNTVYLQMNSLKPEDTAVYYCNADLDVYLWFIFTVYQDDYDYWGQGTQVTVSS”, the “polyreactivity (PSR sort gate)” value was “high polyreactivity”.

In the case of “QVQLVESGGCLVQAGGSLRLSCAASGLTLDQYALGWYRQAPGKEREFVAAISYSGGNTYYADSVKGRFTISRDNAKYTVYLQMNSLKPEDTAVYYCAAYYFYFYHKVIWYELDYWGQGTQVTVSS”, the “polyreactivity (PSR sort gate)” value is reported as “low polyreactivity”.

Turning to “QVQLVESGGGLLQAGGSLRLSCAASGYIFQYYAMGWYRQAPGKERELVAAITGGGSTKYADSVKGRFTISRDNAKNTVYLQMNSLKPEDTAVYYCAASLWYRISKYDYWGQGTQVTVSS”, the “polyreactivity (PSR sort gate)” value was “high polyreactivity”.

As for “QFQIVESGGGLVQAGGSLRLSCAASGSTFRTNAMGWYRQAPGKERELVARIRYSVGSTYYADSVKGRFTISRDNAKNTVYLQMNSLKPEDTAVYYCAAENQRVGTFREHDSWGQGTQVTVSS”, the “polyreactivity (PSR sort gate)” value is recorded as “low polyreactivity”.

For “QVQLVESGGGLVQAGGSLRLSCAASGRIFGGNAMGWYRQAPGKERELVAAITTRGGSTYADSVKGRFTISRDKAKNTVYLQMNSLKPEDTAVYYCAVERSYHGGPRYLVRTYGYWGQGTQVTVSS”, the “polyreactivity (PSR sort gate)” value is listed as “low polyreactivity”.

Turning to “QVQLVESGGVLVQAGGSLRLSCAASGSTFYPNAMGWYRQAPGQEREFVAAISDGGSTTYADSVKGRFTISRDNAKNTVYLQMNSLKPEDTAVYYCNARVGSYTPSWYYQEFDYWGQGTQVTVSS”, the “polyreactivity (PSR sort gate)” value is given as “low polyreactivity”.

With “QVQLVESGGGLVQAGGSLRLSCAASGFTFRRYAMGWYRQAPGKERELVASISWTGGSTHYADSVKGRFTISRDNAKNTVYLQMNSLKPEDSAVYYSNTVWYYLRSFNIDHYYDYWGQGTQVTVSS”, the “polyreactivity (PSR sort gate)” value is reported as “high polyreactivity”.

Take “QVQLVESGGGLVQAGGSLRLSCAASGSTFYYYAMGWYRQAPGKERELVATISSGSSTNYADSVKGRFTISRDNAKNTVYLQMNCLKPEDTAVYYCAADRWYITLSIDATISYDYWGQGTQVTVSS”: the “polyreactivity (PSR sort gate)” value is “low polyreactivity”.

As to “QVQLVESGGGLVQAGGSLRLSCAASGSIFYGNAMGWYRQAPGKERELVAAISKRGGSTYYADSVKGRFTISRDNAKNTVYLQMNSLIPEDTAVYYCDKGSAGHTEYYYWGQGTQVTVSS”, the “polyreactivity (PSR sort gate)” value is given as “high polyreactivity”.

On to “QVQLVESGGGLVQAGGSLRLSCAASGSTFYTYDMGWYRQAPGKERELVASITSGGSTNYADSVKGRFTISRDNAKNTVYLQMNSLKPEDTAVYYCAVGTYTIYSGTLYDYKYYWGQGTQVTVSS”, for which the “polyreactivity (PSR sort gate)” value is given as “low polyreactivity”.

The values are drawn from the nanobody polyreactivity screen of Harvey et al. (2022).
